In patent US20150291951 one finds activity (% modification (median)) data, which are given here for 4 sequences.

Holding throughout (test): cell_activity
The test system of data set [1] is crhr1 right TALEN +63 (synthetic construct (Xanthomonas TALE-FokI)). As to conditions: pair with P5, 15 bp spacer; 15-fold over +231.
The subject of data set [2] is crhr1 right TALEN +231 (synthetic construct (Xanthomonas TALE-FokI)). As to conditions: pair with P7.
The test system of data set [3] is crhr1 left TALEN +231 (synthetic construct (Xanthomonas TALE-FokI)). As to conditions: pair with P8.
In data set [4] the test system is crhr1 left TALEN +63 (synthetic construct (Xanthomonas TALE-FokI)). The note with it: pair with P6, 15 bp spacer; 15-fold over +231.
For data set [5], the system named is ponzr1 left TALEN +231 (pTAL) (synthetic construct (Xanthomonas TALE-FokI)). The note with it: pair with P4; zebrafish larvae.
Data set [6] deals with ponzr1 right TALEN +231 (pTAL) (synthetic construct (Xanthomonas TALE-FokI)). The note with it: pair with P3; zebrafish larvae.

For the sequence “CTGCTGCCGACTGGACCCTGAGGT (double strand) [crhr1 right half-site]”, the activity (% modification (median)) in data set [1] was 7; in data set [2] it was < 1.

As to “TGCAACACTGAGCTCTGTAAACCT (double strand) [crhr1 left half-site]”, the activity (% modification (median)) was < 1 in data set [3] and 7 in data set [4].

In turn, “GTGAGCACCCAGCGGACCTCCTCT (double strand) [ponzr1 left half-site]” displayed an activity (% modification (median)) in data set [5] of 5.

Sequence “ATCAGAACAACAGTCAGAGAT (double strand) [ponzr1 right half-site]” had an activity (% modification (median)) in data set [6] of 5.
